Results from patent publication US20220235138A1, “CAR-T CELLS TARGETING IL-1RAP AND THEIR USE IN ACUTE MYELOID LEUKEMIA (AML)” (ETABLISSEMENT FRANCAIS DU SANG, priority 2019, published 2022).

How the values were obtained:
[1] = system: iCASP9/AP1903 suicide system; experiment: Optical microscopy of transduced 293T cells after CID AP1903 exposure; type: cell-based, human; details: CID AP1903 20 nM, 24 h (10 nM)
[2] = target: T1, recombinant IL-1RAP biotinylated protein (Homo sapiens, UniProt Q9NPH3); experiment: Flow cytometry detection of cell surface CAR with biotinylated recombinant IL-1RAP; type: binding; details: for amount of recombinant IL-1RAP protein required for recruiting maximum of cells: single experiment
T1 sequence (Q9NPH3 21-359 limits assumed): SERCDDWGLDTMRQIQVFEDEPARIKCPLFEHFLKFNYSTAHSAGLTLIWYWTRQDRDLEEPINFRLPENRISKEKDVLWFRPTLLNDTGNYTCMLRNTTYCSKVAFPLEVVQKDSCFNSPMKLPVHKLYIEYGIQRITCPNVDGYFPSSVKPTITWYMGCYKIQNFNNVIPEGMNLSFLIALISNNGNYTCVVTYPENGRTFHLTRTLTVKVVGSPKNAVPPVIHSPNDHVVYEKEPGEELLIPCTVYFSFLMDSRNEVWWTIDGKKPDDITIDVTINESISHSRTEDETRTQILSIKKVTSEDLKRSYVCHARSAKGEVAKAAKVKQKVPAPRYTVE
Description: CEM cell line or primary T cells were transduced either with Mock or CAR IL-1RAP. Cells were then incubated in presence of increasing amount of recombinant IL-1RAP labelled with biotin. Staining was performed with an anti-biotin fluorescent antibody and analyzed by flow cytometry. Percentage of Biotin+/CD19+ CEM or T-cells plotted against amount of labelled biotin recombinant protein. Dot plots of cytometry analyze were provided for representative staining, including maximum. Untransduced T cells (C0) or Mock T cells were used as control.
Additional analysis using serial dilution of biotinylated IL-1RAP protein (from 20 ng to 2.4 pg/ml) and FACS analysis allow to detect either IL-1RAP CAR transduced CEM T cell line or primary T-cells.

[3] = transduced primary T-cells (GMTC)

B1: IL-1RAP CAR: chimeric antigen receptor: #E3C3 scFv in frame with CD28-4.1BB-CD3z signaling chain; tested in transduced CEM, primary T or 293T cells (protein)
scFv: QVQLQQPGAELMMPGASVKVSCEASGYTFTDSWMHWVKQRPGQGLEWIGAIDPSDSYTTYNQKFTGKATLSVDESSNTAYMQLSSLTSEDSAVYYCARYYSGSNYISPFPYWGQGTLVTVSAGGSGGGGSGGGGSVDMESQIQVFVFVFLWLSGVDGDIVMTQSHKFMSTSVGDRVTITCKASLDVSTAVAWYQQKPGQSPKLLIYSASYRYTGVPDRFTGSGSGTDFTFTISSVQAEDLAVYYCQQHYSPPFTFGSGTNLEIK
modifications: left off: small tags and cut ends
notes: chimeric antigen receptor: #E3C3 scFv in frame with CD28-4.1BB-CD3z signaling chain; tested in transduced CEM, primary T or 293T cells
sensitivity of transduced 293T cell culture to CID [1]: sensitive to the CID | CAR recognition and binding of IL-1RAP protein [2]: CAR specific recognition and binding of IL-1RAP protein | maximum percentage of Biotin+/CD19+ cells ([2]; transduced CEM T cell line): 85.8% | amount of recombinant IL-1RAP protein required for recruiting maximum of cells ([2]; transduced CEM T cell line): 1.25 ng | maximum percentage of Biotin+/CD19+ cells [2, 3]: 68.5% | amount of recombinant IL-1RAP protein required for recruiting maximum of cells [2, 3]: 0.15 ng
